# According to US20250127915A1 (SHANGHAI JUNSHI BIOSCIENCES, published 2025):
# Read-outs that look alike come from different tables or passages of the source.
# Key:
# human CLDN-18.2 [1] = biological target: T1, human CLDN-18.2 (human, UniProt P56856 1-261); assay: cell-based or functional assay
# human CLDN-18.2 [2] = biological target: T1, human CLDN-18.2; assay: flow cytometry on NUGC4-CLDN-18.2 cells overexpressing human CLDN-18.2, 4 °C 30 min, fluorescent secondary antibody, MFI-PE
# Experimental: Finally, the fluorescence intensity was detected by BD CantoII flow cytometer. […] The antibody dose-dependent binding curve was fitted by GraphPad (FIGS. 1a-1d) and EC50 was calculated. The positive controls were the corresponding monoclonal antibodies, and the negative control was anti-KLH IgG1.
# human CLDN-18.2 [3] = biological target: T1, human CLDN-18.2; assay: cell-based or functional assay; remark: listed apart in the source
# human CLDN-18.2 [4] = biological target: T1, human CLDN-18.2; assay: cell-based or functional assay; remark: listed apart in the source
Binder,"IC50 of inhibition of NUGC4-CLDN-18.2 cells proliferation (Cell titer Glo, 48 h) (human CLDN-18.2 [1])",EC50 (human CLDN-18.2 [2]),"EC50 of endocytosis (MFI-APC of CypHer5E-labelled conjugate in NUGC4-CLDN-18.2 cells, 37 °C 4 h, FACS) (human CLDN-18.2 [3])","EC50 of endocytosis (MFI-APC of CypHer5E-labelled conjugate in NUGC4-CLDN-18.2 cells, 37 °C 4 h, FACS) (human CLDN-18.2 [4])","EC50 of endocytosis (MFI-APC of CypHer5E-labelled antibody in NUGC4-CLDN-18.2 cells, 37 °C 4 h, FACS) (human CLDN-18.2 [4])"
"ADC-4-MMAE (antibody, human IgG1, kappa, V domains shown, MC-VC-PAB-MMAE (vc-MMAE) coupled after TCEP reduction of the antibody; positions not given; DAR 4.55, also called JS107-4-MMAE) VH: EVQLVESGGGLVQPGGSLRLSCAASGFTLNNFGMHWVRQAPGKGLEWVSSISSGSGTIYYADSVKGRFTISRDNPKNSLYLQMNSLRAEDTAVYYCARAYYGNGFSFWGQGTLVTVSS VL: DIVMTQSPDSLAVSLGERATINCKSSQSLLNSGNQKNYLTWYQQKPGQPPKLLIYWASTRESGVPDRFSGSGSGTDFTLTISSLQAEDVAVYYCQNVYSYPLTFGQGTKLEIKR",0.011 µg/mL,0.495 µg/mL,2.67 µg/mL,–,–
"ADC-3-MMAE (antibody, V domains shown, MC-VC-PAB-MMAE (vc-MMAE) coupled after TCEP reduction of the antibody; positions not given; DAR 3.97, also called JS107-3-MMAE) VH: QIQLVQSGSELKKPGESVKVSCKASGYTFTNYGMNWVRQAPGQGLEWMGWINTYTGESTYADGFTGRFVFSSDTSARTAYLQISSLKAEDTAVYFCATLGYGNSLAYWGQGTLVTVSS VL: DIVMTQSPDSLAVSLGERATINCKSSQSLLNSGNQRNYLTWYQQKPGQPPKLLIYWASTRESGVPDRFSGSGSGTDFTLTISSLQAEDVAVYYCQNNYFYPFTFGQGTKLEIKR",0.0127 µg/mL,2.96 µg/mL,0.937 µg/mL,–,–
"ADC-5-MMAE (antibody, human IgG1, kappa, V domains shown, MC-VC-PAB-MMAE (vc-MMAE) coupled after TCEP reduction of the antibody; positions not given; DAR 4.1, also called JS107-5-MMAE) VH: EVQLVESGGGLVQPGGSLRLSCAASGFTLNNFGMHWVRQAPGKGLEWVSSISSGSGTIYYADSVKGRFTISRDNPKNSLYLQMNSLRAEDTAVYYCARAYYGNGFSFWGQGTLVTVSS VL: DIVMTQSPDSLAVSLGERATINCKSSQSLLNSGNQKNYLTWYQQKPGQPPKLLIYWASTRESGVPDRFSGSGSGTDFTLTISSLQAEDVAVYYCQNVYSYPLTFGQGTKLEIKR",–,0.23 µg/mL,–,21.8 µg/mL,–
"ADC-4-MMAF (antibody, human IgG1, kappa, V domains shown, MC-MMAF coupled after TCEP reduction of the antibody; positions not given; DAR 3.85, also called JS107-4-MMAF) VH: EVQLVESGGGLVQPGGSLRLSCAASGFTLNNFGMHWVRQAPGKGLEWVSSISSGSGTIYYADSVKGRFTISRDNPKNSLYLQMNSLRAEDTAVYYCARAYYGNGFSFWGQGTLVTVSS VL: DIVMTQSPDSLAVSLGERATINCKSSQSLLNSGNQKNYLTWYQQKPGQPPKLLIYWASTRESGVPDRFSGSGSGTDFTLTISSLQAEDVAVYYCQNVYSYPLTFGQGTKLEIKR",0.00936 µg/mL,1.21 µg/mL,1.61 µg/mL,–,–

# Further lines, results first:
"IC50 of inhibition of NUGC4-CLDN-18.2 cells proliferation (Cell titer Glo, 48 h) (human CLDN-18.2 [1])",EC50 (human CLDN-18.2 [2]),"EC50 of endocytosis (MFI-APC of CypHer5E-labelled conjugate in NUGC4-CLDN-18.2 cells, 37 °C 4 h, FACS) (human CLDN-18.2 [3])","EC50 of endocytosis (MFI-APC of CypHer5E-labelled conjugate in NUGC4-CLDN-18.2 cells, 37 °C 4 h, FACS) (human CLDN-18.2 [4])","EC50 of endocytosis (MFI-APC of CypHer5E-labelled antibody in NUGC4-CLDN-18.2 cells, 37 °C 4 h, FACS) (human CLDN-18.2 [4])",Binder
–,1.65 µg/mL,–,–,–,"JS012-Chi2-hu2-v3-2 (antibody, human IgG1, kappa, V domains shown, also called JS107-4) VH: EVQLVESGGGLVQPGGSLRLSCAASGFTLNNFGMHWVRQAPGKGLEWVSSISSGSGTIYYADSVKGRFTISRDNPKNSLYLQMNSLRAEDTAVYYCARAYYGNGFSFWGQGTLVTVSS VL: DIVMTQSPDSLAVSLGERATINCKSSQSLLNSGNQKNYLTWYQQKPGQPPKLLIYWASTRESGVPDRFSGSGSGTDFTLTISSLQAEDVAVYYCQNVYSYPLTFGQGTKLEIKR"
–,3.76 µg/mL,–,–,–,"JS012-Chi9-hu7 (antibody, human IgG1, kappa, V domains shown, also called JS107-3; JS012-chi9-hu07) VH: QIQLVQSGSELKKPGESVKVSCKASGYTFTNYGMNWVRQAPGQGLEWMGWINTYTGESTYADGFTGRFVFSSDTSARTAYLQISSLKAEDTAVYFCATLGYGNSLAYWGQGTLVTVSS VL: DIVMTQSPDSLAVSLGERATINCKSSQSLLNSGNQRNYLTWYQQKPGQPPKLLIYWASTRESGVPDRFSGSGSGTDFTLTISSLQAEDVAVYYCQNNYFYPFTFGQGTKLEIKR"
–,0.347 µg/mL,–,–,58.8 µg/mL,"JS012-Chi2-hu2-v3-2a (antibody, human IgG1, kappa, V domains shown, also called JS107-5) VH: EVQLVESGGGLVQPGGSLRLSCAASGFTLNNFGMHWVRQAPGKGLEWVSSISSGSGTIYYADSVKGRFTISRDNPKNSLYLQMNSLRAEDTAVYYCARAYYGNGFSFWGQGTLVTVSS VL: DIVMTQSPDSLAVSLGERATINCKSSQSLLNSGNQKNYLTWYQQKPGQPPKLLIYWASTRESGVPDRFSGSGSGTDFTLTISSLQAEDVAVYYCQNVYSYPLTFGQGTKLEIKR"
